Measured values taken from the DeepSol protein solubility set.

assay: soluble on expression in E. coli; label from the status in PepcDB or PDB records

Sequence | soluble on expression in E. coli
MSGGIDSTATCLMLQEQGYEIVGVTMRVWGDEPQDARELAARMGIEHYVADERIPFKETIVKNFIDEYKQGRTPNPCVMCNPLFKFRVLAEWADKLDCAYIATGHYSRLEERSGHIYIVAGDDDKKDQSYFLWRLGQDILKRCIFPLGDYTKIKVREYLAEKGYEAKSKEGESMEVCFIQGDYRDFLREQCPELDTEIGPGWFVNSEGVKLGQHKGAPYYTIGQRKGLEIALGKPAYVLKINPQKNTVMLGDAEQLQTEYMLAEQDRIVDEQELFSCENLAVRIRYRSRPIPCRVKRLEDGRLLVRFRETASAVAPGQSAVFYDGRRVLGGAFIASQRGIGLVIIENKDKL | not soluble
MAHHHHHHMFLRPHEINILMNEMKIIYEFKKEYYEIILNENNADDNVIDLFEKNTNKCNIEIKPYDDINSDLLDFDQFKMFNIDKDDIKKKNEDKKDEDRIKYILDKESYNNSIDKLNDNSCDESCYITDDELCKQINNPFDNTYNNKFVVKYKEYFEENSFIVKKGDIYGADFLLYITEQKYAHSLYAVYIIYKHYILRDLIRILRVSHSIKKKVILILWNELNCFNISDTLVYIKSYKYK | soluble
MKKILLLILITGLFSFGNSKNKIPTRKFTSVKISGPRYRLEGAFGILSSKENSSYMNNRFISNSISLLSEWKVQVNEKIDATFGPKVTLDFSFSIFKGLYTYKPNLNLGAEANFNYRIKEKMKVYGGVEIGTGVGISIENANIHKTILTTISKISVGVKINDKYNIGVYLGNNIKGMLGIEAGYTF | not soluble
MPPKTSEVARKLERLGFKPLPRRGKGGHRVYVHPDGRKVVLPLHSGEIPWGLFKTVLKQAGITEEEFRRA | soluble
MAGDPMKKLVTATTLTAGIGTALVGQAHHADAAENYTNYNNYNYNTTQTTTTTTTTTTTSSISHSGNLYTAGQCTWYVYDKVGGEIGSTWGNANNWAAAAQGAGFTVNHTPSKGAILQSSEGPFGHVAYVESVNSDGSVTISEMNYSGGPFSVSSRTISASEAGNYNYIHILEHHHHHH | not soluble
MSLKKIQFFDTTLRDGEQTPGVNFDVKEKIQIALQLEKLGIDVIEAGFPISSPGDFECVKAIAKAIKHCSVTGLARCVEGDIDRAEEALKDAVSPQIHIFLATSDVHMEYKLKMSRAEVLASIKHHISYARQKFDVVQFSPEDATRSDRAFLIEAVQTAIDAGATVINIPDTVGYTNPTEFGQLFQDLRREIKQFDDIIFASHCHDDLGMATANALAAIENGARRVEGTINGIGERAGNTALEEVAVALHIRKDFYQAETNIVLNQFKNSSDLISRLSGMPVPRNKAVIGGNAYAHESGIHQDGVLKNPDTYEIITPALVGVDKNSLPLGKLSGKHAFNTRMEEMGYTLTEQEQKDAFKRFKQLADAKKEVTEEDLHALILGQSSESADDFELKHLQVQYVTGGVQGAIVRIEERDGALVEDAATGSGSIEAIYNTINRLMKQDIELTDYRIQAITAGQDAQAEVHVVIKNDKGAVFHGIGIDFDVLTASAKAYLQASGKSKTASKQADFEEVKEGHHHHHH | not soluble
SDKLNKITVPASQKLRQLQKMVHDIKNNEGGIMNKIKKLKVKAPPSVPRRDYASESPADEEQQWSDDFDSDYENPDEHSDSEMYVMPAEENADDSYEPPPVEQETRPVHPALPFARGEYIDNRSSQRHSPPFSKTLPSKPSWPSEKARLTSTLPALTALQKPQVPPKPKGLLEDEADYVVPVEDNDENYIHPTESSSPPPEKAPMVNRSTKPNSSTPASPPGTASGRNSGAWETKSPPPAAPSPLPRAGKKPTTPLKTTPVASQQNASSVCEEKPIPAERHRGSSHRQEAVQSPVFPPAQKQIHQKPIPLPRFTEGGNPTVDGPLPSFSSNSTISEQEAGVLCKPWYAGACDRKSAEEALHRSNKDGSFLIRKSSGHDSKQPYTLVVFFNKRVYNIPVRFIEATKQYALGRKKNGEEYFGSVAEIIRNHQHSPLVLIDSQNNTKDSTRLKYAVKVS | soluble
MSLKEYTRPLEQGIDSDKNIFSVLEERVERTPDDNLVEYKNAQGEWAAFTAAEFKNKVVALAKGLIARGVMPGDSVSIIAHTCWQWTALDVAIMSIGALTVPVYETNSPAQVKMIFNDANVKMAFAEDDFQRDKIESVRDQCPDLGDVYVIGLGAIDTIIEYGRAVSDAEFLEREQAVKGSDLATIVYTSGSTGTPKGVELTHANFVFITYSGVNSMPDIAMKPNRRLLLFLPLAHVFARYMQFFCFAGNVSLGLSSNLKTILADFKAFKPTFILAVPRIFEKIYNAASQKAGAGFKGRVFADATQTACDWSHAQQSGGSIPLALNAKHALYNKLVYSSIMEVFGGHVEYAVSGGAPLDSSIAHFFNGVGLSLLEGYGMTETCAPSSVNPTEGYKIGTIGLPLQGVTMGVDEEGELCIKSPAVCAGYHNNPDVTKQQIVDGWLHTGDLGSIDDDGFVSIVGRKKDLIITAGGKNVSPCEMEASIMTSPVVSQCVMIGDRKPFIAAIISLDLAETNLWLESKGAEQVADLDEASKNPIVRAEVERAVNKANELASRAESIRKFEIVPDEFTEENGLVTPSMKARRQAVVEHYRTLIDKVIYVPRKPAAHAEEGHHHHHH | soluble
SEKMSRPLPLNPTFIPPPYGVLRSLLENPLKLPLHHEDAFSKDKDKEKKLDDESNSPTVPQSAFLGPTLWDKTLPYDGDTFQLEYMDLEEFLSENGIPPSPSQHDHSPHPPGLQPASSAAPSVMDLSSRASAPLHPGIPSPNCMQSPIRPGQLLPANRNTPSPIDPDTIQVPVGYEPDPADLALSSIPGQEMFDPRKRKFSEEELKPQPMIKKARKVFIPDDLKDDKYWARRRKNNMAAKRSRDARRLKENQIAIRASFLEKENSALRQEVADLRKELGKCKNILAKYEARHGPL | soluble
MRGSHHHHHHTDPALRAPIIQSVERALQILDLFNEQATELKITDISKLMGLSKSTLHSLLKTLQLHGYIDQNPENGKYRLGMKLVERGHFVVGSIDIRQKAKGWLTELSRRTGQTTHLGILDGREGVYIEKIEGKLAAIAYSRIGRRLPVHATAIGKVLIAWLGEAELNALLEGYQYTTFTPATLASREALMSALAQTREQGYALDSEENEQGVRCVAVPVWNHESRVIAALSLSTLTSRVDDAELANFREQLQQAGLALSRALGYPAGLCGR | soluble
MKKIGFVGAGSMAEAMINGILQSGITKPEHIYITNRSNDERLIELKETYSVRPCRDKNEFFTHTDIIILAFKPKDAAESIDSIRPYIKDQLVISVLAGLTIETIQHYFGRKLAVIRVMPNTSAAIRKSATGFSVSTEASKNDIIAAKALLETIGDATLVEERHLDAVTAIAGSGPAYVYRYIEAMEKAAQKVGLDKETAKALILQTMAGATDMLLQSGKQPEKLRKEITSPGGTTEAGLRALQDSRFEEAIIHCIEETAKRSAEIKEQFAGAALERHSLEHHHHHH | soluble
LKCSTVVCVICLEKPKYRCPACRVPYCSVVCFRKHKEQCNPET | soluble
MASIKLKFRPSSVKGKKGVLSYQIIHYRLTRLIKTSYRIMPSEWDDSTGSLLISTQSECKARLLLIRDQTNWEMTRLQGIINDLERTGVEYTIDDIVASFRKIPSVESVFNFMQRCINKLERQKRGRTAEGYTSTMNSFIQFRKNEDLSFEAFDSELMEMYEAYLKEKGLVKNSTSYYMRIWRSVYNLAVEQGYTTDKKPFKHVYTGIDKTVKRAVPFKIIKMIKELDLSFEPQLELARDIFLFSFYTRGMSFIDMAHLKKSNLQNGILTYSRKKTGQRLTILWEELMQEIVDKYKDDTSEYLLPILRYCDINDRKQYKLRAKQIGRGLNKIGLRLELKAPLTFYVARHSWASIAQDRKVSTDIIREGLGHDNEKTTHIYLASISTSQIDRANQIILRGL | not soluble
MGSDKIHHHHHHMAAVGPRTGPGTGAEALALAAELQGEATCSICLELFREPVSVECGHSFCRACIGRCWERPGAGSVGAATRAPPFPLPCPQCREPARPSQLRPNRQLAAVATLLRRFSLPAAAPGEHGSQAAAARAAAARCGQHGEPFKLYCQDDGRAICVVCDRAREHREHAVLPLDEAVQEAKELLESRLRVLKKELEDCEVFRSTEKKESKELLKQMAAEQEKVGAEFQALRAFLVEQEGRLLGRLEELSREVAQKQNENLAQLGVEITQLSKLSSQIQETAQKPDLDFLQEFKSTLSR | not soluble
SELPVRCRNISGTLYKNRLGSGGRGRCIKQGENWYSPTEFEAMAGRASSKDWKRSIRYAGRPLQCLIQDGILNP | soluble
